Measurements reported in publication PMC9786881 (Viruses, 2022).
Values joined by “and” are separate entries in the source; they are usually repeats but may differ in a detail not shown here. Identical values can stand only once.

B1: RABV nucleoprotein lacking its N-terminal arm (N[change], residues 24-450) (domain or fragment)
chain: DQYEYKYPAIKDLKKPCITLGKAPDLNKAYKSVLSGMNAAKLDPDDVCSYLAAAMQFFEGTCPEDWTSYGILIARKGDRITPNSLVEIKRTDVDGNWALTGGMELTRDPTVSEHASLVGLLLSLYRLSKISGQNTGNYKTNIADRIEQIFETAPFVKIVEHHTLMTTHKMCANWSTIPNFRFLAGTYDMFFSRIEHLYSAIRVGTVVTAYEDCSGLVSFTGFIKQINLTAREAILYFFHKNFEEEIRRMFEPGQETAVPHSYFIHFRSLGLSGKSPYSSNAVGHVFNLIHFVGCYMGQVRSLNATVIAACAPHEMSVLGGYLGEEFFGKGTFERRFFRDEKELQEYEAAELTKTDVALADDGTVNSDDEDYFSGETRSPEAVYTRIMMNGGRLKRSHIRRYVSVSSNHQARPNSFAEFLNKTYSNDS
B3: full-length RABV phosphoprotein (PFL) (natural protein)
chain: MSKIFVNPSAIRAGLADLEMAEETVDLINRNIEDNQAHLQGEPIEVDNLPEDMKRLHLDDEKSSNLGEMVRVGEGKYREDFQMDEGEDPNLLFQSYLDNVGVQIVRQMRSGERFLKIWSQTVEEIVSYVTVNFPNPPRRSSEDKSTQTTGRELKKETTSAFSQRESQPSKARMVAQVAPGPPALEWSATNEEDDLSVEAEIAHQIAESFSKKYKFPSRSSGIFLYNFEQLKMNLDDIVKEAKNVPGVTRLAHDGSKIPLRCVLGWVALANSKKFQLLVEADKLSKIMQDDLNRYTSC

Key:
[1] = biological target: B3; experiment: SEC-SAXS; details: both partners purified
[2] = biological target: B1; experiment: fluorescence polarisation; details: both partners purified
[3] = biological target: B1; experiment: fluorescence polarisation; details: both partners purified; remark: listed apart in the source
[4] = biological target: B1; experiment: SEC-MALLS; details: both partners purified
[5] = biological target: the molecule itself; experiment: SEC-SAXS

Binder: B1
- stoichiometry N [1]: 2 N molecules per P dimer and 1 N molecules per P dimer

B2: RABV phosphoprotein residues 1-68 with C-terminal His6 (P68−His6) (peptide)
chain: MSKIFVNPSAIRAGLADLEMAEETVDLINRNIEDNQAHLQGEPIEVDNLPEDMKRLHLDDEKSSNLGE
- IC50 [2]: ~1000 nM
- Kd [3]: 8.2 ± 0.6 nM
- Kd [4]: < 1000 nM

Binder: B3
- stoichiometry N [5]: 2
